Measured values reported in US20170240595 (published 2017).
Read-outs that look alike come from different tables or passages of the source. Bridges are numbered along the chain shown (N, C = ends). Where no end group is shown, it is not given here. [ ]: non-standard residue; d: D form. Bip = N[C@@H](Cc1ccc(-c2ccccc2)cc1)C(=O)O; 2Nal = N[C@@H](Cc1ccc2ccccc2c1)C(=O)O; d2Nal = N[C@H](Cc1ccc2ccccc2c1)C(=O)O; hArg = N=C(N)NCCCC[C@H](N)C(=O)O; 3Pal = N[C@@H](Cc1cccnc1)C(=O)O; Pen = CC(C)(S)[C@H](N)C(=O)O; Nle = CCCC[C@H](N)C(=O)O; Bal = not defined here; GABA = NCCCC(=O)O; βAla = NCCC(=O)O

Experiments:
Test in all cases: competition
hMC5-R [1] = biological target: T1, hMC5-R (human, UniProt P33032)
hMC3-R [2] = biological target: T2, hMC3-R (human, UniProt P41968)
hMC1-R [3] = biological target: T3, hMC1-R (human, UniProt Q01726)
hMC4-R [4] = biological target: T4, hMC4-R (human, UniProt P32245)
hMC3-R [5] = biological target: T2, hMC3-R; remark: listed apart in the source
hMC5-R [6] = biological target: T1, hMC5-R; remark: listed apart in the source
hMC4-R [7] = biological target: T4, hMC4-R; remark: listed apart in the source
hMC1-R [8] = biological target: T3, hMC1-R; remark: listed apart in the source

T3 sequence (Q01726 whole entry): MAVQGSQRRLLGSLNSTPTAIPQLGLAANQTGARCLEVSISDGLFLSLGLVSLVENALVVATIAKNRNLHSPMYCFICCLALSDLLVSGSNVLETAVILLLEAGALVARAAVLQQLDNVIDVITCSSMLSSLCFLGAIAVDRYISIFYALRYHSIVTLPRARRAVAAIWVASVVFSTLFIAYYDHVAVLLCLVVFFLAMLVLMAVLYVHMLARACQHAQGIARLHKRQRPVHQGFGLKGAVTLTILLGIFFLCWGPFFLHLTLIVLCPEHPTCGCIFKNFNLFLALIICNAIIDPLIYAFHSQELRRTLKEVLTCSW
T1 sequence (P33032 whole entry): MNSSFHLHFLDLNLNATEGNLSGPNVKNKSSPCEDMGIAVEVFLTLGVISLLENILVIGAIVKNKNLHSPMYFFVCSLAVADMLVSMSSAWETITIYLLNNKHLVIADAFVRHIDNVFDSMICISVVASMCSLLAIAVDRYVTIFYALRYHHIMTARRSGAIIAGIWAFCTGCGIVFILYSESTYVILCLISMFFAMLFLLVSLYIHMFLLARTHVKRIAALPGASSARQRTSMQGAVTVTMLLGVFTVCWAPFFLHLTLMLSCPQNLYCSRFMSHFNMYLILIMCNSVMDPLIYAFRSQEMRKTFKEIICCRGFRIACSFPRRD
T4 sequence (P32245 whole entry): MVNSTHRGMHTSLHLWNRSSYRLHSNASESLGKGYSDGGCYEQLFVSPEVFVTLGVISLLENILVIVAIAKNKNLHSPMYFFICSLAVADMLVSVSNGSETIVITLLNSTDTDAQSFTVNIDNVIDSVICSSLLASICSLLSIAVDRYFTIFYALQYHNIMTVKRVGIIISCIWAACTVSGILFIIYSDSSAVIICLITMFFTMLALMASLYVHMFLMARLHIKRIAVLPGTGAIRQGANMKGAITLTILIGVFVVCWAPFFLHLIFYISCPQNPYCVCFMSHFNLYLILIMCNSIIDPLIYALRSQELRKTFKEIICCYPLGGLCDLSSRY
T2 sequence (P41968 whole entry): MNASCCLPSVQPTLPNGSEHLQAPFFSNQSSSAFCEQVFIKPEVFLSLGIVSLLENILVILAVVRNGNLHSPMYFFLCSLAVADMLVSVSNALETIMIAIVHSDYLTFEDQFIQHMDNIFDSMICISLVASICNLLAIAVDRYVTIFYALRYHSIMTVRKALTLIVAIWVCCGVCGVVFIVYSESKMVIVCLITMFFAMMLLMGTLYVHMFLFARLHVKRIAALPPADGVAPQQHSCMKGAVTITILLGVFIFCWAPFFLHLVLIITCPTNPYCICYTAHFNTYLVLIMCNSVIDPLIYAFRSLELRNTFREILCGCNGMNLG

| Binder | Ki (hMC5-R [1]) | Ki (hMC3-R [2]) | Ki (hMC1-R [3]) | Ki (hMC4-R [4]) | Ki (hMC3-R [5]) | Ki (hMC5-R [6]) | Ki (hMC4-R [7]) | Ki (hMC1-R [8]) |
| --- | --- | --- | --- | --- | --- | --- | --- | --- |
| Ac-[Nle]C[dA]H[dF]RWGC-NH2 (disulfide 2-9; SMILES CCCC[C@H](NC(C)=O)C(=O)N[C@H]1CSSC[C@@H](C(N)=O)NC(=O)CNC(=O)[C@H](Cc2c[nH]c3ccccc23)NC(=O)[C@H](CCCNC(=N)N)NC(=O)[C@@H](Cc2ccccc2)NC(=O)[C@H](Cc2c[nH]cn2)NC(=O)[C@@H](C)NC1=O) [Ac-Nle-c(Cys-D-Ala-His-D-Phe-Arg-Trp-Gly-Cys)-NH2] | 339 nM | 149 nM | – | 3.01 nM | – | – | – | – |
| [dF]CH[dF]R[Bip][βAla][dC]T-NH2 (disulfide 2-8 (inferred)) [D-Phe-c(Cys-His-D-Phe-Arg-Bip-β-Ala-D-Cys)-Thr-NH2] | 1130 nM | 3370 nM | 5.8 nM | 583 nM | – | – | – | – |
| Ac-RCH[dF]RW[GABA][Pen]-NH2 (disulfide 2-8; SMILES CC(=O)N[C@@H](CCCNC(=N)N)C(=O)N[C@H]1CSSC(C)(C)[C@@H](C(N)=O)NC(=O)CCCNC(=O)[C@H](Cc2c[nH]c3ccccc23)NC(=O)[C@H](CCCNC(=N)N)NC(=O)[C@@H](Cc2ccccc2)NC(=O)[C@H](Cc2c[nH]cn2)NC1=O) [Ac-Arg-c(Cys-His-D-Phe-Arg-Trp-Gaba-Pen)-NH2] | – | – | – | – | 20.5 nM | 502 nM | 4.57 nM | 1.81 nM |
| CEHXRXAC (cyclic, D-residues) [Ac-c(Cys-Glu-His-D-Phe-Arg-2-Nal-Ala-Cys)-NH2] | 1460 nM | – | 262 nM | – | – | – | – | – |
| Ac-[Nle]C[3Pal][dF]RW[GABA]C-NH2 (disulfide 2-8) [Ac-Nle-c(Cys-3-Pal-D-Phe-Arg-Trp-Gaba-Cys)-NH2] | 92.6 nM | 151 nM | 21.1 nM | – | – | – | – | – |
| [dF]CH[d(Et)Tyr][hArg]W[βAla][dC]T-NH2 (disulfide 2-8 (inferred)) [D-Phe-c(Cys-His-D-(Et)Tyr-hArg-Trp-β-Ala-D-Cys)-Thr-NH2] | – | – | – | 14.7 nM | – | – | – | – |

The remaining lines, values ahead:

| Ki (hMC5-R [1]) | Ki (hMC3-R [2]) | Ki (hMC1-R [3]) | Ki (hMC4-R [4]) | Ki (hMC3-R [5]) | Ki (hMC5-R [6]) | Ki (hMC4-R [7]) | Ki (hMC1-R [8]) | Binder |
| --- | --- | --- | --- | --- | --- | --- | --- | --- |
| 4300 nM | 445 nM | 4.12 nM | 50.6 nM | – | – | – | – | Ac-[Nle]D[dA]H[dF]R[Bal]K-NH2 (lactam 2-8; reading uncertain) [Ac-Nle-c(Asp-D-Ala-His-D-Phe-Arg-Bal-Lys)-NH2] |
| 11.1 nM | – | 4.89 nM | 21.3 nM | – | – | – | – | Ac-[Nle]D[dA]H[dF]R[Bal]AK-NH2 (lactam 2-9; reading uncertain) [Ac-Nle-c(Asp-D-Ala-His-D-Phe-Arg-Bal-Ala-Lys)-NH2] |
| – | – | 1.17 nM | – | – | – | – | – | Ac-[Nle]DH[d2Nal]RWAK-NH2 (lactam 2-8) [Ac-Nle-c(Asp-His-D-2-Nal-Arg-Trp-Ala-Lys)-NH2] |
| – | – | – | – | 172 nM | 538 nM | 11 nM | 3.93 nM | Ac-[dR]CH[dF]RW[GABA][Pen]-NH2 (disulfide 2-8; SMILES CC(=O)N[C@H](CCCNC(=N)N)C(=O)N[C@H]1CSSC(C)(C)[C@@H](C(N)=O)NC(=O)CCCNC(=O)[C@H](Cc2c[nH]c3ccccc23)NC(=O)[C@H](CCCNC(=N)N)NC(=O)[C@@H](Cc2ccccc2)NC(=O)[C@H](Cc2c[nH]cn2)NC1=O) [Ac-D-Arg-c(Cys-His-D-Phe-Arg-Trp-Gaba-Pen)-NH2] |
| 8810 nM | 4560 nM | 132 nM | – | – | – | – | – | Ac-C[dA]H[dF]R[2Nal]AC-NH2 (disulfide 1-8 (inferred)) [Ac-c(Cys-D-Ala-His-D-Phe-Arg-2-Nal-Ala-Cys)-NH2] |
| 4.19 nM | 98.9 nM | 0.659 nM | 2.55 nM | – | – | – | – | Ac-[Nle]D[dA]H[dF]RWK-NH2 (lactam 2-8; SMILES CCCC[C@H](NC(C)=O)C(=O)N[C@H]1CC(=O)NCCCC[C@@H](C(N)=O)NC(=O)[C@H](Cc2c[nH]c3ccccc23)NC(=O)[C@H](CCCNC(=N)N)NC(=O)[C@@H](Cc2ccccc2)NC(=O)[C@H](Cc2c[nH]cn2)NC(=O)[C@@H](C)NC1=O) [Ac-Nle-c(Asp-D-Ala-His-D-Phe-Arg-Trp-Lys)-NH2] |
